Results published in article PMC10897455, “TMEM25 is a Par3-binding protein that attenuates claudin assembly during tight junction development” (EMBO Reports, 2023).

Biological target: the molecule itself
Test: pull-down; GST- and MBP-tagged TMEM25-ECR incubated for 1 h at 4 °C in 150 mM NaCl, 0.1% Triton X-100, 20 mM Tris-HCl pH 7.6; glutathione-Sepharose beads; CBB staining or anti-MBP immunoblot

B1: TMEM25-ECR (residues 27–220), GST- or MBP-tagged (domain or fragment, human, UniProt Q86YD3 27-220, looked up)
chain: ELEPQIDGQTWAERALRENERHAFTCRVAGGPGTPRLAWYLDGQLQEASTSRLLSVGGEAFSGGTSTFTVTAHRAQHELNCSLQDPRSGRSANASVILNVQFKPEIAQVGAKYQEAQGPGLLVVLFALVRANPPANVTWIDQDGPVTVNTSDFLVLDAQNYPWLTNHTVQLQLRSLAHNLSVVATNDVGVTSAS
notes: extracellular region (ECR), residues 27–220; bacterially expressed, non-glycosylated; also called GST–TMEM25-ECR; MBP–TMEM25-ECR; source: E. coli BL21, purified (glutathione-Sepharose 4B or amylose resin)
  binding result: binds
